Legend:
[1] = target: His-tagged recombinant full-length ApoE4, 10xHIS-ApoE4(1-299) (human) (UniProt P02649); experiment: direct ELISA, target coated at 1 ug/ml, antibody in 3-fold dilutions from 500 ng/ml, OD 450 nm
[2] = target: recombinant C-terminal ApoE fragment G200-HIS (ApoE-G200-H299-10xHIS) (human) (UniProt P02649); experiment: as above
[3] = target: recombinant C-terminal ApoE fragment G200-HIS (ApoE-G200-H299-10xHIS) (human) (UniProt P02649); experiment: direct ELISA, target coated at 1 ug/ml, reference antibody in 3-fold dilutions from 1000 ng/ml, OD 450 nm
[4] = target: recombinant full-length ApoE4 (aa 1-299; SEQ ID NO:45; Abcam cat. no. ab50243) (human) (UniProt P02649); experiment: as above
[5] = target: recombinant C-terminal ApoE fragment L198-HIS (ApoE-L198-H299-10xHIS) (human) (UniProt P02649); experiment: direct ELISA; proteins coated at 0.1 uM, BSA peptides at 1 ug/ml; antibody in 3-fold dilutions from 3000 ng/ml; blank reduced OD 450 nm
[6] = target: recombinant full-length ApoE4 (aa 1-299; SEQ ID NO:45; Abcam cat. no. ab50243) (human) (UniProt P02649); experiment: as above
[7] = target: recombinant C-terminal ApoE fragment A199-HIS (ApoE-A199-H299-10xHIS) (human) (UniProt P02649); experiment: as above
[8] = target: recombinant full-length ApoE4 (aa 1-299; SEQ ID NO:45; Abcam cat. no. ab50243) (human) (UniProt P02649); experiment: as above; remark: listed apart in the source
[9] = target: recombinant C-terminal ApoE fragment G200-HIS (ApoE-G200-H299-10xHIS) (human) (UniProt P02649); experiment: direct ELISA, second protocol; proteins coated at 0.1 uM, BSA peptides at 1 ug/ml; antibody in 3-fold dilutions from 3000 ng/ml; blank reduced OD 450 nm
[10] = target: recombinant full-length ApoE4 (aa 1-299; SEQ ID NO:45; Abcam cat. no. ab50243) (human) (UniProt P02649); experiment: as above

recombinant full-length ApoE4 (aa 1-299; SEQ ID NO:45; Abcam cat. no. ab50243) (human), sequence (P02649 19-317 C130R limits assumed): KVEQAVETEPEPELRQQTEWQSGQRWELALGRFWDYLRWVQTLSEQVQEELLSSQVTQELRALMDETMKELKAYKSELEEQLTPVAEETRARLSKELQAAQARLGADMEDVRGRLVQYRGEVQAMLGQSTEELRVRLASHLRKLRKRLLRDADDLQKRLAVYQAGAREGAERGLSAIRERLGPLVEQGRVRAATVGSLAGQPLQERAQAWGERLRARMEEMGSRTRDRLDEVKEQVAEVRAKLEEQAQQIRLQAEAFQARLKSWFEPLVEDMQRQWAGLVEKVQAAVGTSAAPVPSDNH
recombinant C-terminal ApoE fragment G200-HIS (ApoE-G200-H299-10xHIS) (human), sequence (P02649 other isoform, or with tags, fused parts or gaps limits assumed): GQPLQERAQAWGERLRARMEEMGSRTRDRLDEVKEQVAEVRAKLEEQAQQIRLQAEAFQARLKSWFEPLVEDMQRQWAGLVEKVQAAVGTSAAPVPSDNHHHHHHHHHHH
recombinant C-terminal ApoE fragment L198-HIS (ApoE-L198-H299-10xHIS) (human), sequence (P02649 other isoform, or with tags, fused parts or gaps limits assumed): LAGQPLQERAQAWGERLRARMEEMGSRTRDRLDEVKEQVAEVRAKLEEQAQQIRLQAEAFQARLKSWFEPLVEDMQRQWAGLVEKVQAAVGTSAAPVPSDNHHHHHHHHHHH
His-tagged recombinant full-length ApoE4, 10xHIS-ApoE4(1-299) (human), sequence (P02649 other isoform, or with tags, fused parts or gaps limits assumed): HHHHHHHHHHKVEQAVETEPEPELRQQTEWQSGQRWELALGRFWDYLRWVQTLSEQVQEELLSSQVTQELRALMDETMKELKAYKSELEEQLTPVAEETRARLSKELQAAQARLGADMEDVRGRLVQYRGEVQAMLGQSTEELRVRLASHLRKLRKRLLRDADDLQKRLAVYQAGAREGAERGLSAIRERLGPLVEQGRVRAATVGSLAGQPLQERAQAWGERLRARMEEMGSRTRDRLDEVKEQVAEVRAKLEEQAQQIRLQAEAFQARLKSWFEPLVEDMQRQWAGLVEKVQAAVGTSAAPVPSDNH
recombinant C-terminal ApoE fragment A199-HIS (ApoE-A199-H299-10xHIS) (human), sequence (P02649 other isoform, or with tags, fused parts or gaps limits assumed): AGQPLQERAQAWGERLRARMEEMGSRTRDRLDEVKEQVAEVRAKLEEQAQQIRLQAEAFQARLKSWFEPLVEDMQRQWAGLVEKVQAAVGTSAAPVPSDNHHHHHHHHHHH

reference anti-ApoE C-terminal antibody ApoE E-8 mouse monoclonal (Santa Cruz Biotechnology, cat. no. sc-393302)
EC50 (read off the curve) [1]: 4 ng/mL | EC50 (read off the curve) [2]: 4 ng/mL | EC50 (read off the curve) [3]: 5 ng/mL | EC50 (read off the curve) [4]: 4 ng/mL | EC50 (read off the curve) [5]: 2 ng/mL | EC50 (read off the curve) [6]: 8 ng/mL | EC50 (read off the curve) [7]: 5 ng/mL | EC50 (read off the curve) [8]: 6 ng/mL | EC50 (read off the curve) [9]: 4 ng/mL | EC50 (read off the curve) [10]: 4 ng/mL
